Experimental data published in publication doi:10.1101/2020.05.09.085852 (bioRxiv, 2020).

Biological target: the molecule itself
Experiment: crystal structure

B1: YukC413.strep (domain or fragment, B. subtilis 168, UniProt P71070 1-413, looked up)
chain: MSGEQKSYLENQLEAVAEKTDAGYTFTFQREKIKLLDGLEANVIKDINPFFHKEIDVTDDEVIITIQPPSSYKAFRFMKAKDKKSKWQFAYQLVQAVQQHNLSRLNLIVAPENIVFDKGLTPYFLHYGVKESIPPYERDEERVWQELKAAAALAVDGAFAFEDYLKFNETLTFSAEAKAILDAESYDDLLELIQTHIDELEAKAKTYIHIPRKKWNIQRYIGLGLIVLLVPALIYSMYALFFAQPKHQAIVDSNRAFLNKQYSEVISTLSKYDAESLPESVQYQLATSYVEVENLGSAKTKNIENNLVTLQSDPQHFLYWIDYGRGEYKEAISIGRKLEYNDYIYFALAKYKQQLLSEDTNDEDIQKELDSVNSELEKAQKERQENKQSNSETSLVDTSEEQTQTDEEKQAEE
stoichiometry N: 2
